Laboratory results as given in US20080235826.

What was measured:
[1] = biological target: T1, purified oat phytochrome A, autophosphorylated (UniProt P06593)
T1 sequence: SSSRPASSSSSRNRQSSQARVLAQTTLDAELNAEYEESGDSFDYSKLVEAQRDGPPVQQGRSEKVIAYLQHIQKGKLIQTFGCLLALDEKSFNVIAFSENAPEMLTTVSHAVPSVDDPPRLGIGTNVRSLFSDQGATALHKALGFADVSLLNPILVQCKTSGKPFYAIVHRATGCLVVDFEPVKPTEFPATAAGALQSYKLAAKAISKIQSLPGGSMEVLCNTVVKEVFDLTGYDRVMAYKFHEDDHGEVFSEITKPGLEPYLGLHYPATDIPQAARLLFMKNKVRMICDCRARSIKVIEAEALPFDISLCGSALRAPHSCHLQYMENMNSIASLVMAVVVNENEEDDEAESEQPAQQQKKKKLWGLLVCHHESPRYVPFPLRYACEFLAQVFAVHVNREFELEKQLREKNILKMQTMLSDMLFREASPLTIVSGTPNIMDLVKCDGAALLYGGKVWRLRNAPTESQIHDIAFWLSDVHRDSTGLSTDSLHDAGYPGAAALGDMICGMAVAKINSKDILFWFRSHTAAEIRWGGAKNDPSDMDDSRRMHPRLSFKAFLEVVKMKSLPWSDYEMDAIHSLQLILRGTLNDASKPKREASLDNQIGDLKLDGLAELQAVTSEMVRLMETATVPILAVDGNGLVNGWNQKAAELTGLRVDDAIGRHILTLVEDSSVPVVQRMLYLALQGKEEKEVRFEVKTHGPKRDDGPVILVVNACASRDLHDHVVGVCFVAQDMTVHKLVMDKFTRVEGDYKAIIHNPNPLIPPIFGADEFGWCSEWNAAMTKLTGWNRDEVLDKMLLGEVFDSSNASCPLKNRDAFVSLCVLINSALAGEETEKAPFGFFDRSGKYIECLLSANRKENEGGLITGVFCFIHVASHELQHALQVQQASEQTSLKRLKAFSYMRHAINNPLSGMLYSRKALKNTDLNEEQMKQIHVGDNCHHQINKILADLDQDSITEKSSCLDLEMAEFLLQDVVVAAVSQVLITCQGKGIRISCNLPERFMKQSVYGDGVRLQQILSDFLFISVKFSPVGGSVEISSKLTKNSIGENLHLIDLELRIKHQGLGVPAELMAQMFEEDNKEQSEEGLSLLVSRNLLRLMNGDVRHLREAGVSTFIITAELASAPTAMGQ

[2] = biological target: T2, Arabidopsis thaliana phytochrome A (PHYA), full-length, yeast two-hybrid fusion
T2 chain: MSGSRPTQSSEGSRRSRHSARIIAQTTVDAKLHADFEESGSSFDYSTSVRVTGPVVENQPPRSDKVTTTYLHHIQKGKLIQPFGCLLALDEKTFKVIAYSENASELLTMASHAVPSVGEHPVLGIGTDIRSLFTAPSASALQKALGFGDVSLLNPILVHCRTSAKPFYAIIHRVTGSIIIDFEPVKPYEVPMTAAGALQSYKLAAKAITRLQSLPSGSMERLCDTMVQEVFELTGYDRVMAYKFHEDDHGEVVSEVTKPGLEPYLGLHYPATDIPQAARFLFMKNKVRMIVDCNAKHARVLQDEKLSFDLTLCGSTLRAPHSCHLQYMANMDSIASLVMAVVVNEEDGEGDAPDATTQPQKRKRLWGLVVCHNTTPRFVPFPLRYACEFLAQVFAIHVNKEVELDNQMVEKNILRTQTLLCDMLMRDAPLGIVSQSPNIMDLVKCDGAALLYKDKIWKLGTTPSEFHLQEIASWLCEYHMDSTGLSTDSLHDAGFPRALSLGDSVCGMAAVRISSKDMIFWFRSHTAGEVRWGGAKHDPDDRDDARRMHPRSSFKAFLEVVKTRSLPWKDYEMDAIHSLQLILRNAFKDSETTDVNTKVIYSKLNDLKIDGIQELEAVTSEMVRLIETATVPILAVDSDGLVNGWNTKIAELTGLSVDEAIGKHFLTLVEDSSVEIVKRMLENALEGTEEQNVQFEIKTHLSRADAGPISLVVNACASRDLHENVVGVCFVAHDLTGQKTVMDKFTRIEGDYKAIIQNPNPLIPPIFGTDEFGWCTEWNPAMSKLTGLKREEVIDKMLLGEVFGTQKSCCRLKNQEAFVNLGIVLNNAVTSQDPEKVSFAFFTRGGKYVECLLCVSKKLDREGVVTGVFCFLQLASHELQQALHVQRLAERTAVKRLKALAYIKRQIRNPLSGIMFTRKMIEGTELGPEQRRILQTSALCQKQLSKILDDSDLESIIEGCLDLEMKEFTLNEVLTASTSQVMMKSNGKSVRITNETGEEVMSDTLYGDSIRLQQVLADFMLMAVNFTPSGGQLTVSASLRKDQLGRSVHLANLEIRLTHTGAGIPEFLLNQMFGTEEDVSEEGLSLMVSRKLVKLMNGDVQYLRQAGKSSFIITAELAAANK

[3] = biological target: Arabidopsis thaliana phytochrome B (PHYB), full-length, yeast two-hybrid bait in pGilda, P14713
[4] = biological target: T3, purified oat phytochrome A, autophosphorylated, P06593
T3 chain: T1 sequence

Sequence of Arabidopsis thaliana phytochrome B (PHYB), full-length, yeast two-hybrid bait in pGilda, P14713 (P14713 whole entry): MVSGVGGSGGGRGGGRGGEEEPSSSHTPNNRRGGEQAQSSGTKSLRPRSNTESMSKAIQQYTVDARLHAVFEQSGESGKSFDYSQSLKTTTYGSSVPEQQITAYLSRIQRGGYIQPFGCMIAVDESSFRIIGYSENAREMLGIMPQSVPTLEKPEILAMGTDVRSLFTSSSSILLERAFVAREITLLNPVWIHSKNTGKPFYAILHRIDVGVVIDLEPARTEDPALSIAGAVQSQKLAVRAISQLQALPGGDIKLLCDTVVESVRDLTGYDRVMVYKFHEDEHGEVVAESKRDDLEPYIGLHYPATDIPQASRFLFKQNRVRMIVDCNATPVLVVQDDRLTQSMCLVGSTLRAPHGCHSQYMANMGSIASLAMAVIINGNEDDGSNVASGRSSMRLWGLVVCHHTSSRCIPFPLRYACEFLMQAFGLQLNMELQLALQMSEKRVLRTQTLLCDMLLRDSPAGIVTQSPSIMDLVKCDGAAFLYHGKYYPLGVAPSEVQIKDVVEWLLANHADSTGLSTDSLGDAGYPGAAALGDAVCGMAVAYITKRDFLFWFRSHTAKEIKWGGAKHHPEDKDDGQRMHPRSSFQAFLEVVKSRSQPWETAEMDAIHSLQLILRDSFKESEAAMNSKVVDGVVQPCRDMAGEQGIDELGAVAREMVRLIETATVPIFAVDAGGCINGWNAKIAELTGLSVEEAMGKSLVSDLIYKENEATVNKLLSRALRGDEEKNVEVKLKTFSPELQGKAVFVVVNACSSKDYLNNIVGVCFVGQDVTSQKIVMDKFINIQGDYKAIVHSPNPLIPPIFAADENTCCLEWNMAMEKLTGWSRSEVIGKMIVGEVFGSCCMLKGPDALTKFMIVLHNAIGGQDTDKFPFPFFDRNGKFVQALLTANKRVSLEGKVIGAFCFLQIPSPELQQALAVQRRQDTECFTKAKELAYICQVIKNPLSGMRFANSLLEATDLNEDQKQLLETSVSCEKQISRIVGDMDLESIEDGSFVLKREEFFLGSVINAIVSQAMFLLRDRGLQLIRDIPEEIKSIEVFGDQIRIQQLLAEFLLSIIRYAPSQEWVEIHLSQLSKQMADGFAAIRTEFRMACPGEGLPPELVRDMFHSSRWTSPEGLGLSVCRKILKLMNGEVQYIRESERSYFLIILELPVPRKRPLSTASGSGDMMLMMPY

Q: Which “dephosphorylation of autophosphorylated oat Pfr phytochrome A (32P autoradiography)” value [1] does the source give for “GST-PP2Ac (fusion protein of GST and the PP2A catalytic domain of PAPP5, with a deletion of amino acids 1-138 of SEQ ID NO: 4)” here?
A: the level of dephosphorylation was very low

B1: B42-PP2Ac (TPR domain-deleted PP2A catalytic domain of PAPP5, yeast two-hybrid prey) (protein)
chain: VPVSERRSVAESIDFHTIEVEPQYSGARIEGEEVTLDFVKTMMEDFKNQKTLHKRYAYQIVLQTRQILLALPSLVDISVPHGKHITVCGDVHGQFYDLLNIFELNGLPSEENPYLFNGDFVDRGSFSVEIILTLFAFKCMCPSSIYLARGNHESKSMNKIYGFEGEVRSKLSEKFVDLFAEVFCYLPLAHVINGKVFVVHGGLFSVDGVKLSDIRAIDRFCEPPEEGLMCELLWSDPQPLPGRGPSKRGVGLSFGGDVTKRFLQDNNLDLLVRSHEVKDEGYEVEHDGKLITVFSAPNYCDQMGNKGAFIRFEAPDMKPNIVTFSAVPHPDVKPMAYANNFLRMFN
Q: Which results are given for B1?
A: beta-galactosidase activity in Miller units (quantitative yeast two-hybrid) [2]: showed a remarkable reduction in the activity of interaction with phytochromes; beta-galactosidase activity in Miller units (quantitative yeast two-hybrid) [3]: showed a remarkable reduction in the activity of interaction with phytochromes

B2: GST-PAPP5 fusion protein (glutathione-S-transferase fused to full-length PAPP5) (protein)
chain: METKNENSDVSRAEEFKSQANEAFKGHKYSSAIDLYTKAIELNSNNAVYWANRAFAHTKLEEYGSAIQDASKAIEVDSRYSKGYYRRGAAYLAMGKFKDALKDFQQVKRLSPNDPDATRKLKECEKAVMKLKFEEAISVPVSERRSVAESIDFHTIEVEPQYSGARIEGEEVTLDFVKTMMEDFKNQKTLHKRYAYQIVLQTRQILLALPSLVDISVPHGKHITVCGDVHGQFYDLLNIFELNGLPSEENPYLFNGDFVDRGSFSVEIILTLFAFKCMCPSSIYLARGNHESKSMNKIYGFEGEVRSKLSEKFVDLFAEVFCYLPLAHVINGKVFVVHGGLFSVDGVKLSDIRAIDRFCEPPEEGLMCELLWSDPQPLPGRGPSKRGVGLSFGGDVTKRFLQDNNLDLLVRSHEVKDEGYEVEHDGKLITVFSAPNYCDQMGNKGAFIRFEAPDMKPNIVTFSAVPHPDVKPMAYANNFLRMFN
Q: Which “dephosphorylation of autophosphorylated oat Pfr phytochrome A (32P autoradiography)” value [4] does the source give for B2 here?
A: only GST-PAPP5 dephosphorylated the autophosphorylated oat Pfr phytochrome A by about 80%

Q: And the “dephosphorylation of autophosphorylated oat phytochrome A according to its light absorption form” value [4]?
A: the dephosphorylation by PAPP5 was higher in Pfr phytochrome than that in Pf phytochrome
